The source of these data is PMC2877795, “Laminin chain assembly is regulated by specific coiled-coil interactions” (Journal of Structural Biology, 2010).

Holding throughout (conditions): both partners purified
For assay [1], the target named is T1, β1γ1 complex of the recombinant mouse laminin coiled-coil fragments (mouse, UniProt P02469 1561-1786; P02468 1362-1607).
T1 construct: two residues (GlySer) left from the protease recognition site after thrombin cleavage; laminin β1 chain, mouse, residues 1561-1786 of the native chain; as m6; laminin γ1 chain, mouse, residues 1362-1607 of the native chain; as m9; heterodimer by AUC; in the αβγ tests all three chains were mixed, the βγ complex was not isolated beforehand; source: mixture of the purified E. coli fragments; not …
T1 sequence 1: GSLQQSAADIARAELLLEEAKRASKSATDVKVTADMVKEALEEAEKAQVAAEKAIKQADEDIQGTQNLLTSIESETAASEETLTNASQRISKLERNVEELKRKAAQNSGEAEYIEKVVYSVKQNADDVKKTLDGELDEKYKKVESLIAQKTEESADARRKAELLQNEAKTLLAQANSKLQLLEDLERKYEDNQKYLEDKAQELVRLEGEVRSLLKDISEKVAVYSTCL
T1 sequence 2: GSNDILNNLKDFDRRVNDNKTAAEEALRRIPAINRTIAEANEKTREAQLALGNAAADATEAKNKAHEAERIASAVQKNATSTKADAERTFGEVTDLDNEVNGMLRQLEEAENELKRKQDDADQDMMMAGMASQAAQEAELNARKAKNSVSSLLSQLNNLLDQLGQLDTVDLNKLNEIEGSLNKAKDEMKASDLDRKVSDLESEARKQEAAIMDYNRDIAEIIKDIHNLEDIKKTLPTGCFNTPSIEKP
The assay can be described thus: native gel or EMSA; mixtures of one α, one β and one γ chain fragment; 10% non-denaturing PAGE (acid gels for basic complexes); mixtures reduced, heated to 70 °C for 5 min and cooled; run overnight at 50 V, room temperature, no cooling; Coomassie; bands confirmed by in-gel trypsin digestion and mass spectrometry. (In general: In EMSA bound probe runs differently from free probe, usually more slowly.)

Assay [2] has as its target T2, β2γ1 complex of the recombinant mouse laminin coiled-coil fragments (mouse, UniProt Q61292 1575-1799; P02468 1362-1607).
T2 construct: two residues (GlySer) left from the protease recognition site after thrombin cleavage; laminin β2 chain, mouse, residues 1575-1799 of the native chain; as m7; laminin γ1 chain, mouse, residues 1362-1607 of the native chain; as m9; in the αβγ tests all three chains were mixed, the βγ complex was not isolated beforehand; source: mixture of the purified E. coli fragments; not shown: 6xHis, …
T2 sequence 1: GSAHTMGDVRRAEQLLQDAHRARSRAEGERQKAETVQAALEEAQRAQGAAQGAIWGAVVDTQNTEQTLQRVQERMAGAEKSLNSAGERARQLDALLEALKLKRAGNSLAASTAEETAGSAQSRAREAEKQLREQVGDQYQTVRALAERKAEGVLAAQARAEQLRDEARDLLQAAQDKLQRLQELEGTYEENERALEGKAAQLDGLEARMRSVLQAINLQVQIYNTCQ
T2 sequence 2: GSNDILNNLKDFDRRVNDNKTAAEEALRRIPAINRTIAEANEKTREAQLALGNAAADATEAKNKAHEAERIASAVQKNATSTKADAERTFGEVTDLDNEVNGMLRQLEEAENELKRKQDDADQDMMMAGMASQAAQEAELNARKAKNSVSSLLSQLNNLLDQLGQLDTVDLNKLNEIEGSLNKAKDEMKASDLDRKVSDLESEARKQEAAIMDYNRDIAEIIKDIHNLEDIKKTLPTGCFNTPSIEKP
The assay is described as above.

Assay [3] deals with T3, β2γ3 complex of the recombinant mouse laminin coiled-coil fragments (mouse, UniProt Q61292 1575-1799; Q9R0B6 1344-1581).
T3 construct: two residues (GlySer) left from the protease recognition site after thrombin cleavage; laminin β2 chain, mouse, residues 1575-1799 of the native chain; as m7; laminin γ3 chain, mouse, residues 1344-1581 of the native chain; as m11; in the αβγ tests all three chains were mixed, the βγ complex was not isolated beforehand; source: mixture of the purified E. coli fragments; not shown: 6xHis, …
T3 sequence 1: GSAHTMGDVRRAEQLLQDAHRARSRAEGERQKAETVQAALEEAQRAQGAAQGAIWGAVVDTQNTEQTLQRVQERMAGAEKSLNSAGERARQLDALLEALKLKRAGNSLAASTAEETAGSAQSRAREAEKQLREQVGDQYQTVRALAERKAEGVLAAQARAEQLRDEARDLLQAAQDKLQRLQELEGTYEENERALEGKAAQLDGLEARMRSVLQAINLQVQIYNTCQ
T3 sequence 2: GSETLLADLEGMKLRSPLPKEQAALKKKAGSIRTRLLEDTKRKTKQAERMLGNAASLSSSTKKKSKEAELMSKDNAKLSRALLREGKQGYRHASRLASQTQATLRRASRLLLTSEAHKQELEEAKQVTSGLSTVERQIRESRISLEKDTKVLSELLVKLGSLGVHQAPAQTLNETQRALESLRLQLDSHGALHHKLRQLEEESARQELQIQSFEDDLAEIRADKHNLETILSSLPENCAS
The assay is described as above.

Assay [4] concerns the target T4, β1γ3 complex of the recombinant mouse laminin coiled-coil fragments (mouse, UniProt P02469 1561-1786; Q9R0B6 1344-1581).
T4 construct: two residues (GlySer) left from the protease recognition site after thrombin cleavage; laminin β1 chain, mouse, residues 1561-1786 of the native chain; as m6; laminin γ3 chain, mouse, residues 1344-1581 of the native chain; as m11; in the αβγ tests all three chains were mixed, the βγ complex was not isolated beforehand; source: mixture of the purified E. coli fragments; not shown: 6xHis, …
T4 sequence 1: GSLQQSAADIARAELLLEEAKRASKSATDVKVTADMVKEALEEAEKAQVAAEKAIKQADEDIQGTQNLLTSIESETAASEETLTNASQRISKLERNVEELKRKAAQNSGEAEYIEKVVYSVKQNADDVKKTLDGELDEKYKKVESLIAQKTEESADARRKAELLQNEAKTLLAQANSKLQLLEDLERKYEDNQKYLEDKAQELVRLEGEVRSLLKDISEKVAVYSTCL
T4 sequence 2: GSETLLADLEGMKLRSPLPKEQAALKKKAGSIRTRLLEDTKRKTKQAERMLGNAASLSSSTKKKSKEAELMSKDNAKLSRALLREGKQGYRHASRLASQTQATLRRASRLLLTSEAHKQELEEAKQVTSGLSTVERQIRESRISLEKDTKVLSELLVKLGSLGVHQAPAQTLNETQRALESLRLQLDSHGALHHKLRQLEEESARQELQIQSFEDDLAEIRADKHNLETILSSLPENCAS
Described as above.

In assay [5] the target is T5, recombinant mouse laminin γ1 chain C-terminal coiled-coil fragment (1362–1607) (mouse, UniProt P02468 1362-1607).
T5 construct: two residues (GlySer) left from the protease recognition site after thrombin cleavage; laminin γ1 chain, mouse, C-terminal coiled-coil fragment, residues 1362-1607 of the native chain (246 residues); source: E. coli JM109(DE3), purified (Ni2+-Sepharose, denaturing, 8 M urea), 6xHis tag removed by thrombin; not shown: 6xHis, N-terminal, cleaved; pPEP-T leader (short C-terminal fragment of the …)
T5 sequence: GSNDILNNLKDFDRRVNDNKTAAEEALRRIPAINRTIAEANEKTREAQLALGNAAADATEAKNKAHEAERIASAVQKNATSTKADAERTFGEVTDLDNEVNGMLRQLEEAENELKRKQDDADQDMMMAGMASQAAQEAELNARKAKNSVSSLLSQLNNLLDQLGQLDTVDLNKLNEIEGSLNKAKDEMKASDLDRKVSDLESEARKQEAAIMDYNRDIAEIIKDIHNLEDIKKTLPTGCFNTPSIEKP
The assay can be described thus: native gel or EMSA; mixtures of one β and one γ chain fragment; 10% non-denaturing PAGE (acid gels for basic complexes); mixtures reduced, heated to 70 °C for 5 min and cooled; run overnight at 50 V; Coomassie; bands confirmed by in-gel trypsin digestion and mass spectrometry.

In assay [6] the target is T6, recombinant mouse laminin γ3 chain C-terminal coiled-coil fragment (1344–1581) (mouse, UniProt Q9R0B6 1344-1581).
T6 construct: two residues (GlySer) left from the protease recognition site after thrombin cleavage; laminin γ3 chain, mouse, C-terminal coiled-coil fragment, residues 1344-1581 of the native chain (238 residues); source: E. coli JM109(DE3), purified (Ni2+-Sepharose, denaturing, 8 M urea), 6xHis tag removed by thrombin; not shown: 6xHis, N-terminal, cleaved
T6 sequence: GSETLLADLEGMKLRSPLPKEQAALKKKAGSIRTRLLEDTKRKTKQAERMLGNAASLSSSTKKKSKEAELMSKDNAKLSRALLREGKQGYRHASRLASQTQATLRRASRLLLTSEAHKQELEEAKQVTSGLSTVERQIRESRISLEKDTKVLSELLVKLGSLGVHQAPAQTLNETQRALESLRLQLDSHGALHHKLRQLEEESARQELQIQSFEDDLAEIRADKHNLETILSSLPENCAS
The description is as above.

Assay [7] deals with T7, recombinant mouse laminin γ2 chain C-terminal coiled-coil fragment (949–1191) (mouse, UniProt Q61092 949-1191).
T7 construct: two residues (GlySer) left from the protease recognition site after thrombin cleavage; laminin γ2 chain, mouse, C-terminal coiled-coil fragment, residues 949-1191 of the native chain (243 residues); source: E. coli JM109(DE3), purified (Ni2+-Sepharose, denaturing, 8 M urea), 6xHis tag removed by thrombin; not shown: 6xHis, N-terminal, cleaved; pPEP-T leader (short C-terminal fragment of the …)
T7 sequence: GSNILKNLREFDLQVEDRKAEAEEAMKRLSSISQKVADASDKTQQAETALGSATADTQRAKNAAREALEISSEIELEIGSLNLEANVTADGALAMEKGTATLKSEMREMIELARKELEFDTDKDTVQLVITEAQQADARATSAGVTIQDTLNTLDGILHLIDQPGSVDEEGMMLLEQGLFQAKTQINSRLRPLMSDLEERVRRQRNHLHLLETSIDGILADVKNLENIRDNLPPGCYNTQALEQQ
The description is as above.

B1: recombinant mouse laminin α5 chain C-terminal coiled-coil fragment (2525–2748) (domain or fragment)
chain: GSNAYSSILQAVQAAEDAAGQALRQASRTWEMVVQRGLAAGARQLLANSSALEETILGHQGRLGLAQGRLQAAGIQLHNVWARKNQLAAQIQEAQAMLAMDTSETSEKIAHAKAVAAEALSTATHVQSQLQGMQKNVERWQSQLGGLQGQDLSQVERDASSSVSTLEKTLPQLLAKLSRLENRGVHNASLALSANIGRVRKLIAQARSAASKVKVSMKFNGRSGVR
notes: two residues (GlySer) left from the protease recognition site after thrombin cleavage; laminin α5 chain, mouse, C-terminal coiled-coil fragment, residues 2525-2748 of the native chain (224 residues); source: E. coli JM109(DE3), purified (Ni2+-Sepharose, denaturing, 8 M urea), 6xHis tag removed by thrombin; not shown: 6xHis, N-terminal, cleaved
Regarding B1, the binding result in assay [1], in assay [2] and in assay [3] was “binds” in each case.

B2: recombinant mouse laminin α1 chain C-terminal coiled-coil fragment (1911–2125) (domain or fragment)
chain: GSHVHSNIQTLTEEAEMLAADAHKTANKTDLISESLASRGKAVLQRSSRFLKESVSTRRKQQGITMKLDELKNLTSQFQESMDNIMKQANDSLAMLRESPGGMREKGRKARELAAAANESAVKTLEDVLALSLRVFNTSEDLSRVNATVQETNDLLHNSTMTTLLAGRKMKDMEMQANLLLDRLKPLKTLEENLSRNLSEIKLLISRARKQVASIKV
notes: two residues (GlySer) left from the protease recognition site after thrombin cleavage; laminin α1 chain, mouse, C-terminal coiled-coil fragment, residues 1911-2125 of the native chain (215 residues); source: E. coli JM109(DE3), purified (Ni2+-Sepharose, denaturing, 8 M urea), 6xHis tag removed by thrombin; not shown: 6xHis, N-terminal, cleaved; pPEP-T leader (short C-terminal fragment of the …)
For B2, the binding result in assay [1] and in assay [2] was “binds” in each case.

B3: recombinant mouse laminin α2 chain C-terminal coiled-coil fragment (1924–2145) (domain or fragment)
chain: GSYSNIKDYIDEAEKVAREAKELAQGATKLATSPQGLLKEDAKGSLQKSFRILNEAKKLANDVKGNHNDLNDLKTRLETADLRNSGLLGALNDTMDKLSAITNDTAAKLQAVKEKAREANDTAKAVLAQVKDLHQNLDGLKQNYNKLADSVAKTNAVVKDPSKNKIIADAGTSVRNLEQEADRLIDKLKPIKELEDNLKKNISEIKELINQARKQANSIKVSVS
notes: two residues (GlySer) left from the protease recognition site after thrombin cleavage; laminin α2 chain, mouse, C-terminal coiled-coil fragment, residues 1924-2145 of the native chain (222 residues); source: E. coli JM109(DE3), purified (Ni2+-Sepharose, denaturing, 8 M urea), 6xHis tag removed by thrombin; not shown: 6xHis, N-terminal, cleaved; pPEP-T leader (short C-terminal fragment of the …)
As to B3, the binding result in assay [1], in assay [2] and in assay [4] was “binds” in each case.

B4: recombinant mouse laminin β1 chain C-terminal coiled-coil fragment (1561–1786) (domain or fragment)
chain: GSLQQSAADIARAELLLEEAKRASKSATDVKVTADMVKEALEEAEKAQVAAEKAIKQADEDIQGTQNLLTSIESETAASEETLTNASQRISKLERNVEELKRKAAQNSGEAEYIEKVVYSVKQNADDVKKTLDGELDEKYKKVESLIAQKTEESADARRKAELLQNEAKTLLAQANSKLQLLEDLERKYEDNQKYLEDKAQELVRLEGEVRSLLKDISEKVAVYSTCL
notes: two residues (GlySer) left from the protease recognition site after thrombin cleavage; laminin β1 chain, mouse, C-terminal coiled-coil fragment, residues 1561-1786 of the native chain (226 residues); source: E. coli JM109(DE3), purified (Ni2+-Sepharose, denaturing, 8 M urea), 6xHis tag removed by thrombin; not shown: 6xHis, N-terminal, cleaved
As for B4, the binding result in assay [5], in assay [6] and in assay [7] was “binds” in each case.
